Reference: patent publication US20140093973A1 (BOARD OF REGENTS OF THE UNIVERSITY OF OKLAHOMA, published 2014)
Ends that are not written are not given here.

Legend:
soluble HLA-B*4402 [1] = target: T1, soluble HLA-B*4402 (human); test: FP screen of 53 sHLA
T1 construct: Member of the panel of 53 single-specificity sHLA

soluble HLA-B*4001 [2] = target: T2, soluble HLA-B*4001 (human); test: FP screen of 53 sHLA with FITC-peptide
T2 construct: Member of the panel of 53 single-specificity sHLA

soluble HLA-B*1801 = target: T3, soluble HLA-B*1801 (human); test: FP screen of 53 sHLA with FITC-peptide
T3 construct: Member of the panel of 53 single-specificity sHLA

soluble HLA-B*4002 = target: T4, soluble HLA-B*4002 (human); test: FP screen of 53 sHLA with FITC-peptide
T4 construct: Member of the panel of 53 single-specificity sHLA

soluble HLA-B*4001 [3] = target: T2, soluble HLA-B*4001; test: FP screen of 53 sHLA
soluble HLA-B*1501 = target: T5, soluble HLA-B*1501 (human); test: FP screen of 53 sHLA with FITC-peptide
T5 construct: Member of the panel of 53 single-specificity sHLA

[4] = target: T6, soluble HLA-B*2705 (sHLA-B*2705) (human); test: FP screen
T6 construct: Recombinant soluble class I with endogenous peptides, made as m1; negative control

soluble HLA-A*2601 = target: T7, soluble HLA-A*2601 (human); test: FP screen
T7 construct: Member of the panel of 53 single-specificity sHLA

soluble HLA-A*3402 = target: T8, soluble HLA-A*3402 (human); test: FP screen
T8 construct: Member of the panel of 53 single-specificity sHLA

soluble HLA-B*1512 = target: T9, soluble HLA-B*1512 (human); test: FP screen
T9 construct: Member of the panel of 53 single-specificity sHLA

soluble HLA-A*6601 = target: T10, soluble HLA-A*6601 (human); test: FP screen
T10 construct: Member of the panel of 53 single-specificity sHLA

soluble HLA-A*3002 = target: T11, soluble HLA-A*3002 (human); test: FP screen
T11 construct: Member of the panel of 53 single-specificity sHLA

soluble HLA-B*4501 = target: T12, soluble HLA-B*4501 (human); test: FP screen
T12 construct: Member of the panel of 53 single-specificity sHLA

[5] = target: T13, soluble HLA-A*4301 (sHLA-A*4301) (human); test: FP screen
T13 construct: Recombinant soluble class I with endogenous peptides, made as m1

soluble HLA-A*2301 = target: T14, soluble HLA-A*2301 (human); test: FP screen
T14 construct: Member of the panel of 53 single-specificity sHLA

[6] = target: T15, soluble HLA-A*6801 (sHLA-A*6801) (human); test: FP screen
T15 construct: Recombinant soluble class I with endogenous peptides, made as m1

soluble HLA-A*2402 = target: T16, soluble HLA-A*2402 (human); test: FP screen
T16 construct: Member of the panel of 53 single-specificity sHLA

soluble HLA-B*1302 = target: T17, soluble HLA-B*1302 (human); test: FP screen
T17 construct: Member of the panel of 53 single-specificity sHLA

[7] = target: soluble HLA-A*0201 (sHLA-A*0201) (human); test: FP screen
[8] = target: T18, soluble HLA-A*6901 (sHLA-A*6901) (human); test: FP screen
T18 construct: Recombinant soluble class I with endogenous peptides, made as m1

soluble HLA-A*2902 = target: T19, soluble HLA-A*2902 (human); test: FP screen
T19 construct: Member of the panel of 53 single-specificity sHLA

soluble HLA-A*0301 = target: T20, soluble HLA-A*0301 (human); test: FP screen
T20 construct: Member of the panel of 53 single-specificity sHLA

soluble HLA-A*3601 = target: T21, soluble HLA-A*3601 (human); test: FP screen
T21 construct: Member of the panel of 53 single-specificity sHLA

soluble HLA-B*4402 [9] = target: T1, soluble HLA-B*4402; test: FP screen
[10] = target: T22, soluble HLA-A*1102 (sHLA-A*1102) (human, UniProt P04439 25-308; P61769 21-119); test: FP screen
T22 construct: Recombinant soluble class I with endogenous peptides, made as m1

AELLAAKF (also: FITC-labeled, position not given here) [AELLAAKF, FITC-labeled B44-like peptide]
binding result (soluble HLA-B*4402 [1]): no binding (tested: 2 nM peptide, 100 ug/ml activated sHLA) | binding result (soluble HLA-B*4001 [2]): binds | binding result (soluble HLA-B*1801): binds | binding result (soluble HLA-B*4002): binds

EEKLIVKQY (also: FITC-labeled, position not given here) [EEKLIVKQY, FITC-labeled B44-like peptide]
binding result (soluble HLA-B*4001 [3]): binds | binding result (soluble HLA-B*1801): binds | binding result (soluble HLA-B*1501): binds | binding result [4]: no binding (tested: 100 ug/ml sHLA) | binding result (soluble HLA-A*2601): no binding (tested: 100 ug/ml sHLA) | binding result (soluble HLA-A*3402): no binding (tested: 100 ug/ml sHLA) | binding result (soluble HLA-B*1512): no binding (tested: 100 ug/ml sHLA) | binding result (soluble HLA-A*6601): no binding (tested: 100 ug/ml sHLA) | binding result (soluble HLA-A*3002): no binding (tested: 100 ug/ml sHLA) | binding result (soluble HLA-B*4501): no binding (tested: 100 ug/ml sHLA) | binding result [5]: no binding (tested: 100 ug/ml sHLA) | binding result (soluble HLA-A*2301): no binding (tested: 100 ug/ml sHLA) | binding result [6]: no binding (tested: 100 ug/ml sHLA) | binding result (soluble HLA-A*2402): no binding (tested: 100 ug/ml sHLA) | binding result (soluble HLA-B*1302): no binding (tested: 100 ug/ml sHLA) | binding result [7]: no binding (tested: 100 ug/ml sHLA) | binding result [8]: no binding (tested: 100 ug/ml sHLA) | binding result (soluble HLA-A*2902): no binding (tested: 100 ug/ml sHLA) | binding result (soluble HLA-A*0301): no binding (tested: 100 ug/ml sHLA) | binding result (soluble HLA-A*3601): no binding (tested: 100 ug/ml sHLA) | binding result (soluble HLA-B*4402 [9]): no binding (tested: 100 ug/ml sHLA) | binding result [10]: no binding (tested: 100 ug/ml sHLA)
